Molecular target: T1, ADR-1 dsRBD2 mutant (ds2) (Caenorhabditis elegans, UniProt Q9U3D6 1-964, K584E;K585A;K588A)
T1 sequence: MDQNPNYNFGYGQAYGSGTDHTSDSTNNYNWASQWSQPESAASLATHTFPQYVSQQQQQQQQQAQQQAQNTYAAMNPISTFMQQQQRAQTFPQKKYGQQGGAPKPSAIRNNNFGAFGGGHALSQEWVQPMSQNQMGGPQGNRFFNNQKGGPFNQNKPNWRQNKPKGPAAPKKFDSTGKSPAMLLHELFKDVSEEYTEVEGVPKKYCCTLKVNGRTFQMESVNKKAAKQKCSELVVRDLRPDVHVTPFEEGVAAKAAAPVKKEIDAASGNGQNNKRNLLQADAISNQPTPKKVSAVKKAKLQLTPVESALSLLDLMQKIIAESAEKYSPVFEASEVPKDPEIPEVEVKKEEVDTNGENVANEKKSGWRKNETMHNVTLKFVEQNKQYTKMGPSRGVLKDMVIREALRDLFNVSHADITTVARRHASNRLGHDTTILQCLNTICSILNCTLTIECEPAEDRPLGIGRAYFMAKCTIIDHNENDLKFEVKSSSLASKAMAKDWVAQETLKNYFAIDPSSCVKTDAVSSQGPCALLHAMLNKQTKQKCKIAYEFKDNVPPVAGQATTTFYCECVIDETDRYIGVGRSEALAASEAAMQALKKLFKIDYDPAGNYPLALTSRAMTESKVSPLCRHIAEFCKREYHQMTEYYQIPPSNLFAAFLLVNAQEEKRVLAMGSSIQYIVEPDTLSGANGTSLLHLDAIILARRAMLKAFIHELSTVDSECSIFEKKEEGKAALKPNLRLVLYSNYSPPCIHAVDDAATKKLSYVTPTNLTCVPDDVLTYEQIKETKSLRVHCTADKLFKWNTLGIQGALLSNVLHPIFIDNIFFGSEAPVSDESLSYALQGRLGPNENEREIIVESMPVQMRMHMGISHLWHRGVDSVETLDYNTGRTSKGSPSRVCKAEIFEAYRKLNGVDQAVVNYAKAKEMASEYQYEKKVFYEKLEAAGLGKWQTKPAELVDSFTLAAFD
Assay: EMSA; apparent Kd; text calls binding similar to WT; EMSA: 20 pM dsRNA, 50 mM KCl, 10 mM Tris-HCl pH 8.0, 10% glycerol, 1 mM MgCl2, 0.5 mM DTT, on ice 30 min; native 6% gel, 0.5x TBE, 4 C
Conditions: protein: recombinant; tags: N-terminal 6xHis (TEV site); label: 5' 32P on ssRNAs (PNK); imperfect duplex; printed strands 45 and 46 nt

B1: lam-2 3'UTR 46 bp dsRNA (dsRNA)
RNA 1: AGACACACAUACAAAAUUUACAAAAAUUGUUAAUUGACAAAAUAC
RNA 2: GUGUUUUGCCAAUUAACGAUUUUUUGUAAAUUUUAUAUGUGUCUCU
Kd: 4.67 ± 0.7 nM
